Assay results: the supplement of paper PMC10567573

B1: TRIM39 (parent)
chain: YPCVLATEGFTSGRHYWEVEVGDK
B2: KRT15 (parent)
chain: SNFHINVEESVDGQVVSSHKREI

Variants of: B1
Assay: protein stability index of a GFP-peptide fusion (GPS, HEK-293T) (PSI 1-6); higher = more stable
Details: c terminus: a fixed tail appended
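Also: lentivirally expressed fusions sorted by FACS into six bins by GFP to DsRed ratio, PSI derived from sequencing read proportions per bin multiplied by bin number.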

| Variant | protein stability index |
| --- | --- |
| YPCVLATEGFTSGRHYEEVEVGDK [W17E] | 3.84 |
| YPCVLATEGFTSGRHYREVEVGDK [W17R] | 2.88 |
| YPCVLATEGFTSGRHYMEVEVGDK [W17M] | 3.21 |
| YPCVLATEGFTSGRHYFEVEVGDK [W17F] | 2.41 |
| YPCVLATEGFTSGRHYAEVEVGDK [W17A] | 3.49 |
| YPCVLATEGFTSGRDYWEVEVGDK [H15D] | 2.93 |
| YPCVLATEGFTSGRVYWEVEVGDK [H15V] | 2.27 |
| YPCVLATEGFTSGRHYWEVEVHDK [G22H] | 1.95 |
| YPCVLATEGFTSGRHYWEVEVCDK [G22C] | 1.66 |
| YPCVLATEGFTSGRHYWEVEVDDK [G22D] | 1.92 |
| YPCVLATEGFTSGRHYWEVEVYDK [G22Y] | 1.98 |
| YPCVLATEGFTSGRHYWEVEVVDK [G22V] | 1.82 |
| YPCVLATEGFTSGRHYWEAEVGDK [V19A] | 1.96 |
| YPCVLATEGFTSGRHYWEGEVGDK [V19G] | 2.6 |
| YPCVLATEGFTSGRHYWETEVGDK [V19T] | 1.41 |
| YSCVLATEGFTSGRHYWEVEVGDK [P2S] | 1.52 |
| YGCVLATEGFTSGRHYWEVEVGDK [P2G] | 2.58 |

| Variant | protein stability index |
| --- | --- |
| YVCVLATEGFTSGRHYWEVEVGDK [P2V] | 2.4 |
| YPCVLATEGFTSGRHYWEVEVGFK [D23F] | 1.58 |
| YPCVLATEGFTSGRHYWAVEVGDK [E18A] | 3.12 |
| YPCVLATEGFTSGRHYWYVEVGDK [E18Y] | 2.71 |
| YPCVLATEGFTSGRHYWIVEVGDK [E18I] | 1.89 |
| YPCVLATEGFTSGRHYWGVEVGDK [E18G] | 2.82 |
| YPCVLATEGFTSGRHYWMVEVGDK [E18M] | 1.51 |
| YPCGLATEGFTSGRHYWEVEVGDK [V4G] | 2.69 |
| YPCHLATEGFTSGRHYWEVEVGDK [V4H] | 1.52 |
| YPCKLATEGFTSGRHYWEVEVGDK [V4K] | 1.79 |
| YPCPLATEGFTSGRHYWEVEVGDK [V4P] | 2.01 |
| YPCVLATEGFTSGRHMWEVEVGDK [Y16M] | 2.45 |
| YPCVLATEGFTSGRHCWEVEVGDK [Y16C] | 1.5 |
| YPCVLATEGFTSGRHEWEVEVGDK [Y16E] | 2.6 |
| YPCVLATEGFTSGRHNWEVEVGDK [Y16N] | 2.56 |
| YPCVLATEGFTSGRHQWEVEVGDK [Y16Q] | 2.16 |
| YPCVLATEGFTSGRHFWEVEVGDK [Y16F] | 1.2 |

Variants of: B2
Assay: as above
Details: c terminus: native

| Variant | protein stability index |
| --- | --- |
| SNFHINVEESVDGQVVSSHKHEI [R21H] | 3.9 |
| SNFHINVEESVDGQVVSSHKFEI [R21F] | 4.32 |
| SNFHINVEESVDGQVVSSHKNEI [R21N] | 3.89 |
| SNFHINVEESVDGQVVSSHKDEI [R21D] | 4.89 |
| SNFHINVEESVDGQVVSSHKQEI [R21Q] | 4.48 |
| SNFHINVEESVDGQVVSSHKYEI [R21Y] | 4.83 |
| SNFHINVEESVDGQVVSSHKIEI [R21I] | 3.16 |
| SNFHINVEESVDGQVVSSHKKEI [R21K] | 4.88 |
| SNFHINVEESVDGQVVSSHKPEI [R21P] | 3.5 |
| SNFHINVEESVDGQVVSSHKLEI [R21L] | 4.52 |
| SNFHINVEESVDGQVVSSHKWEI [R21W] | 3.38 |
| SNFHINVEESVDGQVVSSHKTEI [R21T] | 4.4 |
| SNFHINVEESVDGQVVSSHKEEI [R21E] | 5.02 |
| SNFHINVEESVDGQVVSSHKVEI [R21V] | 3.79 |
| SNFHINVEESVDGQVVSSHKSEI [R21S] | 5.13 |
| SNFHINVEESVDGQVVSSHKGEI [R21G] | 4.9 |
| SNFHINVEESVDGQVVSSHKCEI [R21C] | 4.43 |
| SNFHINVEESVDGQVVSSHKMEI [R21M] | 4.91 |
| SNFHINVEESVDGQVVSSHKAEI [R21A] | 4.45 |
| SNFHINVEESVDGQVVSSHQREI [K20Q] | 2.77 |
| SNFHINVEESVDGQVVSSHVREI [K20V] | 2.4 |

| Variant | protein stability index |
| --- | --- |
| SNFHINVEESVDGQVVSSHYREI [K20Y] | 2.18 |
| SNFHINVEESVDGQVVSSHTREI [K20T] | 3.08 |
| SNFHINVEESVDGQVVSSHRREI [K20R] | 3.06 |
| SNFHINVEESVDGQVVSSHWREI [K20W] | 3.4 |
| SNFHINVEESVDGQVVSSHKRLI [E22L] | 4.53 |
| SNFHINVEESVDGQVVSSHKRHI [E22H] | 4.64 |
| SNFHINVEESVDGQVVSSHKRRI [E22R] | 2.87 |
| SNFHINVEESVDGQVVSSHKRTI [E22T] | 4.46 |
| SNFHINVEESVDGQVVSSHKRKI [E22K] | 4.82 |
| SNFHINVEESVDGQVVSSHKRPI [E22P] | 4.74 |
| SNFHINVEESVDGQVVSSHKRFI [E22F] | 4.19 |
| SNFHINVEESVDGQVVSSHKRQI [E22Q] | 4.37 |
| SNFHINVEESVDGQVVSSHKRCI [E22C] | 4.59 |
| SNFHINVEESVDGQVVSSHKRAI [E22A] | 4.63 |
| SNFHINVEESVDGQVVSSHKRSI [E22S] | 3.52 |
| SNFHINVEESVDGQVVSSHKRNI [E22N] | 4.82 |
| SNFHINVEESVDGQVVSSHKRMI [E22M] | 4.05 |
| SNFHINVEESVDGQVVSSHKRII [E22I] | 4.12 |
| SNFHINVEESVDGQVVSSHKRYI [E22Y] | 4.1 |
| SNFHINVEESVDGQVVSSHKRWI [E22W] | 3.94 |
| SNFHINVEESVDGQVVSSHKRDI [E22D] | 4.97 |

| Variant | protein stability index |
| --- | --- |
| SNFHINVEESVDGQVVSSHKRGI [E22G] | 5.28 |
| SNFHINVEESVDGQVVSSHKREQ [I23Q] | 4.43 |
| SNFHINVEESVDGQVVSSHKREF [I23F] | 4.74 |
| SNFHINVEESVDGQVVSSHKREE [I23E] | 2.44 |
| SNFHINVEESVDGQVVSSHKRED [I23D] | 4.89 |
| SNFHINVEESVDGQVVSSHKREC [I23C] | 4.94 |
| SNFHINVEESVDGQVVSSHKREG [I23G] | 3.55 |
| SNFHINVEESVDGQVVSSHKREW [I23W] | 2.45 |
| SNFHINVEESVDGQVVSSHKREH [I23H] | 4.13 |
| SNFHINVEESVDGQVVSSHKREP [I23P] | 3.83 |
| SNFHINVEESVDGQVVSSHKREA [I23A] | 4.14 |
| SNFHINVEESVDGQVVSSHKREN [I23N] | 4.98 |
| SNFHINVEESVDGQVVSSHKRET [I23T] | 4.32 |
| SNFHINVEESVDGQVVSSHKREY [I23Y] | 4.55 |
| SNFHINVEESVDGQVVSSHKRES [I23S] | 3.79 |
| SNFHINVEESVDGQVVSSHKREK [I23K] | 5.16 |
| SNFHINVEESVDGQVVSSHKREM [I23M] | 2.52 |
| SNFHINVEESVDGQVVSSHKRER [I23R] | 3.09 |
| SNFHINVEESVDGQVVSSHKREV [I23V] | 4.83 |
